{
  "source": "patent US20050123549A1",
  "about": "(IMMUNOGEN, published 2005)",
  "key": {"[1]": {"molecular_target": "T1, Muc1 mucin carrying the CA6 sialoglycotope (human, UniProt P15941 24-1255, sialylated O-linked carbohydrate carrying the CA6 epitope; positions not stated)", "T1 construct": "whole, on cells; Target of DS6 on CA6-positive human cell lines (flow cytometry) and in their lysates (dot blots, immunoprecipitation); also called CA6 antigen; DS6 antigen", "assay": "flow cytometry on WISH cells, direct binding"}, "[2]": {"molecular_target": "T1, Muc1 mucin carrying the CA6 …", "assay": "competition flow cytometry on WISH cells; competitor 2 nM biotin-muDS6, streptavidin-DTAF", "method": "(§1) To confirm that the huDS6 versions retains the affinity of muDS6, competitive binding experiments were conducted. […] In some cases, the experimentally measured apparent Kd can vary simply because of the secondary reagent used to indirectly detect binding."}, "[3]": {"molecular_target": "T1, Muc1 mucin carrying the CA6 …", "assay": "flow cytometry on HeLa cells"}, "[4]": {"molecular_target": "T1, Muc1 mucin carrying the CA6 …", "assay": "flow cytometry on Caov-3 cells"}, "[5]": {"molecular_target": "T1, Muc1 mucin carrying the CA6 …", "assay": "cell-based or functional assay"}, "[6]": {"molecular_target": "T1, Muc1 mucin carrying the CA6 …", "assay": "flow cytometry on WISH cells, detected with streptavidin-DTAF", "method": "as §1"}, "[7]": {"molecular_target": "T1, Muc1 mucin carrying the CA6 …", "assay": "flow cytometry on WISH cells, detected with goat anti-mouse-FITC"}},
  "data": [
    {"binder": "humanized DS6 antibody version 1.0 (antibody, human IgG1, V domains shown, also called huDS6 v1.0; v1.0) VH: QAQLQVSGAEVVKPGASVKMSCKASGYTFTSYNMHWVKQTPGQGLEWIGYIYPGNGATNYNQKFQGKATLTADTSSSTAYMQISSLTSEDSAVYFCARGDSVPFAYWGQGTLVTVSA VL: EIVLTQSPATMSASPGERVTITCSAHSSVSFMHWFQQKPGTSPKLWIYSTSSLASGVPARFGGSGSGTSYSLTISSMEAEDAATYYCQQRSSFPLTFGAGTKLELKR", "values": [
      {"measurement": "Kd", "setting": "[1]", "result": 3.71, "unit": "nM"},
      {"measurement": "EC50", "setting": "[2]", "result": 37.1, "unit": "nM"}
    ]},
    {"binder": "DS6-SPP-MM1-202 taxoid conjugate (antibody, V domains shown, taxoid MM1-202 linked through the SSNPP linker, 2.86 drugs/antibody; positions not given, also called taxane-conjugated DS6 antibody) VH: QAYLQQSGAELVRSGASVKMSCKASGYTFTSYNMHWVKQTPGQGLEWIGYIYPGNGATNYNQKFKGKATLTADPSSSTAYMQISSLTSEDSAVYFCARGDSVPFAYWGQGTLVTVSA VL: QIVLTQSPAIMSASPGEKVTITCSAHSSVSFMHWFQQKPGTSPKLWIYSTSSLASGVPARFGGSGSGTSYSLTISRMEAEDAATYYCQQRSSFPLTFGAGTKLELKR", "values": [
      {"measurement": "Kd", "setting": "[3]", "result": 1.24, "unit": "nM"}
    ]},
    {"binder": "DS6 antibody-DM1 conjugate (antibody, V domains shown, DM1 linked through the SPP disulfide linker, DM1/Ab ratio 4.36; positions not given, also called DS6-DM1; immunoconjugate) VH: QAYLQQSGAELVRSGASVKMSCKASGYTFTSYNMHWVKQTPGQGLEWIGYIYPGNGATNYNQKFKGKATLTADPSSSTAYMQISSLTSEDSAVYFCARGDSVPFAYWGQGTLVTVSA VL: QIVLTQSPAIMSASPGEKVTITCSAHSSVSFMHWFQQKPGTSPKLWIYSTSSLASGVPARFGGSGSGTSYSLTISRMEAEDAATYYCQQRSSFPLTFGAGTKLELKR", "values": [
      {"measurement": "Kd", "setting": "[4]", "result": 3.9, "unit": "nM"},
      {"measurement": "Clonogenic Assay Conjugate IC50 (M), BT-20 cells", "setting": "[5]", "result": "> 3e-09", "unit": "M"},
      {"measurement": "Clonogenic Assay Conjugate IC50 (M), BT-483 cells", "setting": "[5]", "result": "1e-10", "unit": "M"},
      {"measurement": "Clonogenic Assay Conjugate IC50 (M), Caov-3 cells", "setting": "[5]", "result": "8e-10", "unit": "M"},
      {"measurement": "Clonogenic Assay Conjugate IC50 (M), Caov-4 cells", "setting": "[5]", "result": "> 3e-09", "unit": "M"},
      {"measurement": "Clonogenic Assay Conjugate IC50 (M), HPAC cells", "setting": "[5]", "result": "1.8e-09", "unit": "M"},
      {"measurement": "Clonogenic Assay Conjugate IC50 (M), HPAF-II cells", "setting": "[5]", "result": "> 3e-09", "unit": "M"},
      {"measurement": "Clonogenic Assay Conjugate IC50 (M), HeLa cells", "setting": "[5]", "result": "1.8e-09", "unit": "M"},
      {"measurement": "Clonogenic Assay Conjugate IC50 (M), Hs766T cells", "setting": "[5]", "result": "> 3e-09", "unit": "M"},
      {"measurement": "Clonogenic Assay Conjugate IC50 (M), KB cells", "setting": "[5]", "result": "1.4e-09", "unit": "M"},
      {"measurement": "Clonogenic Assay Conjugate IC50 (M), OVCAR5 cells", "setting": "[5]", "result": "> 3e-09", "unit": "M"},
      {"measurement": "Clonogenic Assay Conjugate IC50 (M), T-47D cells", "setting": "[5]", "result": "> 3e-09", "unit": "M"},
      {"measurement": "Clonogenic Assay Conjugate IC50 (M), TOV-21G cells", "setting": "[5]", "result": "2e-09", "unit": "M"},
      {"measurement": "Clonogenic Assay Conjugate IC50 (M), WISH cells", "setting": "[5]", "result": "4.6e-10", "unit": "M"},
      {"measurement": "MTT Assay Conjugate EC50 (M), BT-20 cells", "setting": "[5]", "result": "1.44e-08", "unit": "M"},
      {"measurement": "MTT Assay Conjugate EC50 (M), Caov-3 cells", "setting": "[5]", "result": "1.61e-09", "unit": "M"},
      {"measurement": "MTT Assay Conjugate EC50 (M), HPAC cells", "setting": "[5]", "result": "1.84e-09", "unit": "M"},
      {"measurement": "MTT Assay Conjugate EC50 (M), HPAF-II cells", "setting": "[5]", "result": "1e-08", "unit": "M"},
      {"measurement": "MTT Assay Conjugate EC50 (M), Hs766T cells", "setting": "[5]", "result": "> 3.2e-08", "unit": "M"},
      {"measurement": "MTT Assay Conjugate EC50 (M), KB cells", "setting": "[5]", "result": "3.01e-09", "unit": "M"},
      {"measurement": "MTT Assay Conjugate EC50 (M), OVCAR5 cells", "setting": "[5]", "result": "8.46e-07", "unit": "M"},
      {"measurement": "MTT Assay Conjugate EC50 (M), TOV-21G cells", "setting": "[5]", "result": "6.88e-09", "unit": "M"},
      {"measurement": "MTT Assay Conjugate EC50 (M), WISH cells", "setting": "[5]", "result": "6.69e-10", "unit": "M"},
      {"measurement": "MTT Assay Conjugate EC50 (M), ZR-75-1 cells", "setting": "[5]", "result": "9.45e-10", "unit": "M"}
    ]},
    {"binder": "chimeric DS6 (antibody, V domains shown) VH: QAYLQQSGAELVRSGASVKMSCKASGYTFTSYNMHWVKQTPGQGLEWIGYIYPGNGATNYNQKFKGKATLTADPSSSTAYMQISSLTSEDSAVYFCARGDSVPFAYWGQGTLVTVSA VL: QIVLTQSPAIMSASPGEKVTITCSAHSSVSFMHWFQQKPGTSPKLWIYSTSSLASGVPARFGGSGSGTSYSLTISRMEAEDAATYYCQQRSSFPLTFGAGTKLELKR", "values": [
      {"measurement": "Kd", "setting": "[1]", "result": 3.15, "unit": "nM"}
    ]},
    {"binder": "biotinylated murine DS6 (antibody, V domains shown, biotinylated; positions not given, Murine DS6 IgG with biotin; also called biotin-muDS6; biotin-DS6) VH: QAYLQQSGAELVRSGASVKMSCKASGYTFTSYNMHWVKQTPGQGLEWIGYIYPGNGATNYNQKFKGKATLTADPSSSTAYMQISSLTSEDSAVYFCARGDSVPFAYWGQGTLVTVSA VL: QIVLTQSPAIMSASPGEKVTITCSAHSSVSFMHWFQQKPGTSPKLWIYSTSSLASGVPARFGGSGSGTSYSLTISRMEAEDAATYYCQQRSSFPLTFGAGTKLELKR", "values": [
      {"measurement": "Kd", "setting": "[6]", "result": 6.76, "unit": "nM"},
      {"measurement": "Kd", "setting": "[7]", "result": 2.8, "unit": "nM"}
    ]},
    {"binder": "humanized DS6 antibody version 1.2 (antibody, human IgG1, V domains shown, The light chain is the same as in v1.0; also called huDS6 v1.2; v1.2) VH: QAQLQVSGAEVVKPGASVKMSCKASGYTFTSYNMHWVKQTPGQGLEWIGYIYPGNGATNYNQKFQGKATLTADPSSSTAYMQISSLTSEDSAVYFCARGDSVPFAYWGQGTLVTVSA VL: EIVLTQSPATMSASPGERVTITCSAHSSVSFMHWFQQKPGTSPKLWIYSTSSLASGVPARFGGSGSGTSYSLTISSMEAEDAATYYCQQRSSFPLTFGAGTKLELKR", "values": [
      {"measurement": "Kd", "setting": "[1]", "result": 4.2, "unit": "nM"},
      {"measurement": "EC50", "setting": "[2]", "result": 22.6, "unit": "nM"}
    ]}
  ]
}
